Measured values from patent US20030203464.

What was measured:
[1] = target: Rac1, P63000
[2] = target: RhoA, P61586
[3] = target: Cdc42, P60953
Sequence of Cdc42, P60953 (P60953 whole entry, looked up): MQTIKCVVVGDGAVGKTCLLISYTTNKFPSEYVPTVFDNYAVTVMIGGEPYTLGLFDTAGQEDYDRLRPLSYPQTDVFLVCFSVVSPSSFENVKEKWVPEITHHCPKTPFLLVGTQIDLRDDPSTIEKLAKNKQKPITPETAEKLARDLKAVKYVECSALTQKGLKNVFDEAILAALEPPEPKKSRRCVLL

Sequence of RhoA, P61586 (P61586 whole entry): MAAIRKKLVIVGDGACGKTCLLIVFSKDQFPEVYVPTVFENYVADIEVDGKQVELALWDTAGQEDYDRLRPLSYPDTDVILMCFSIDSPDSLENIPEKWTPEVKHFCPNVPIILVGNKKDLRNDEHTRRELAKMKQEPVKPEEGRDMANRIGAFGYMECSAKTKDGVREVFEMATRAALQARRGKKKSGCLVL

Protein	exchange activity on Rac1, RhoA and Cdc42 [1]	exchange activity on Rac1, RhoA and Cdc42 [2]	exchange activity on Rac1, RhoA and Cdc42 [3]
Type I Rac-GEF (protein) MEYMPMEIRHDLEILQPEEIKLQEAMFELVTSEASYYKSLNLLVSHFMENERIRKILHPSEAHILFSNVLDVLAVSERFLLELEHRMEENIVISDVCDIVYRYAADHFSVYITYVSNQTYQERTYKQLLQEKAAFRELIAQLELDPKCRGLPFSSFLILPFQRITRLKLLVQNILKRVEERSERECTALDAHKELEMVVKACNEGVRKMSRTEQMISIQKKMEFKIKSVPIISHSRWLLKQGELQQMSGPKTSRTLRTKKLFHEIYLFLFNDLLVICRQIPGDKYQVFDSAPRGLLRVEELEDQGQTLANVFILRLLENADDREATYMLKASSQSEMKRWMTSLAPNRRTKFVSFTSRLLDCPQVQCVHPYVAQQPDELTLELADILNILDKTDDGWIFGERLHDQERGWFPSSMTEEILNPKIRSQNLKECFRVHKMDDPQRSQNKDRRKLGSRNRQ	Rac GEF is primarily selective for Rac1	but also displays activity against both RhoA and Cdc42	but also displays activity against both RhoA and Cdc42
Type II Rac-GEF (protein) MEYMPMEIRHDLEILQPEEIKLQEAMFELVTSEASYYKSLNLLVSHFMENERIRKILHPSEAHILFSNVLDVLAVSERFLLELEHRMEENIVISDVCDIVYRYAADHFSVYITYVSNQTYQERTYKQLLQEKAAFRELIAQLELDPKCRGLPFSSFLILPFQRITRLKLLVQNILKRVEERSERECTALDAHKELEMVVKACNEGVRKMSRTEQMISIQKKMEFKIKSVPIISHSRWLLKQGELQQMSGPKTSRTLRTKKLFHEIYLFLFNDLLVICRQIPGDKYQVFDSAPRGLLRVEELEDQGQTLANVFILRLLENADDREATYMLKASSQSEMKRWMTSLAPNRRTKFVSFTSRLLDCPQVQCVHPYVAQQPDELTLELADILNILDKTDDGWIFGERLHDQERGWFPSSMTEEILNPKIRSQNLKECFRVHKMDDPQRSQNKDRRKLGSRNRQ	Rac GEF is primarily selective for Rac1	but also displays activity against both RhoA and Cdc42	but also displays activity against both RhoA and Cdc42
